Entries after “also recorded” stand apart in the source; their conditions may differ.
B1: R392A (protein, UniProt Q9Y4K3 1-522, looked up, variant R392A)
TNF receptor-associated …: MSLLNCENSCGSSQSESDCCVAMASSCSAVTKDDSVGGTASTGNLSSSFMEEIQGYDVEFDPPLESKYECPICLMALREAVQTPCGHRFCKACIIKSIRDAGHKCPVDNEILLENQLFPDNFAKREILSLMVKCPNEGCLHKMELRHLEDHQAHCEFALMDCPQCQRPFQKFHINIHILKDCPRRQVSCDNCAASMAFEDKEIHDQNCPLANVICEYCNTILIREQMPNHYDLDCPTAPIPCTFSTFGCHEKMQRNHLARHLQENTQSHMRMLAQAVHSLSVIPDSGYISEVRNFQETIHQLEGRLVRQDHQIRELTAKMETQSMYVSELKRTIRTLEDKVAEIEAQQCNGIYIWKIGNFGMHLKCQEEEKPVVIHSPGFYTGKPGYKLCMALHLQLPTAQRCANYISLFVHTMQGEYDSHLPWPFQGTIRLTILDQSEAPVRQNHEEIMDAKPELLAFQRPTIPRNPKGFGYVTFMHLEALRQRTFIKDDTLLVRCEVSTRFDMGSLRREGFQPRSTDAGV
B2: Y473A (protein, UniProt Q9Y4K3 1-522, looked up, variant Y473A)
TNF receptor-associated …: MSLLNCENSCGSSQSESDCCVAMASSCSAVTKDDSVGGTASTGNLSSSFMEEIQGYDVEFDPPLESKYECPICLMALREAVQTPCGHRFCKACIIKSIRDAGHKCPVDNEILLENQLFPDNFAKREILSLMVKCPNEGCLHKMELRHLEDHQAHCEFALMDCPQCQRPFQKFHINIHILKDCPRRQVSCDNCAASMAFEDKEIHDQNCPLANVICEYCNTILIREQMPNHYDLDCPTAPIPCTFSTFGCHEKMQRNHLARHLQENTQSHMRMLAQAVHSLSVIPDSGYISEVRNFQETIHQLEGRLVRQDHQIRELTAKMETQSMYVSELKRTIRTLEDKVAEIEAQQCNGIYIWKIGNFGMHLKCQEEEKPVVIHSPGFYTGKPGYKLCMRLHLQLPTAQRCANYISLFVHTMQGEYDSHLPWPFQGTIRLTILDQSEAPVRQNHEEIMDAKPELLAFQRPTIPRNPKGFGAVTFMHLEALRQRTFIKDDTLLVRCEVSTRFDMGSLRREGFQPRSTDAGV
B3: F471A (protein, UniProt Q9Y4K3 1-522, looked up, variant F471A)
TNF receptor-associated …: MSLLNCENSCGSSQSESDCCVAMASSCSAVTKDDSVGGTASTGNLSSSFMEEIQGYDVEFDPPLESKYECPICLMALREAVQTPCGHRFCKACIIKSIRDAGHKCPVDNEILLENQLFPDNFAKREILSLMVKCPNEGCLHKMELRHLEDHQAHCEFALMDCPQCQRPFQKFHINIHILKDCPRRQVSCDNCAASMAFEDKEIHDQNCPLANVICEYCNTILIREQMPNHYDLDCPTAPIPCTFSTFGCHEKMQRNHLARHLQENTQSHMRMLAQAVHSLSVIPDSGYISEVRNFQETIHQLEGRLVRQDHQIRELTAKMETQSMYVSELKRTIRTLEDKVAEIEAQQCNGIYIWKIGNFGMHLKCQEEEKPVVIHSPGFYTGKPGYKLCMRLHLQLPTAQRCANYISLFVHTMQGEYDSHLPWPFQGTIRLTILDQSEAPVRQNHEEIMDAKPELLAFQRPTIPRNPKGAGYVTFMHLEALRQRTFIKDDTLLVRCEVSTRFDMGSLRREGFQPRSTDAGV

What was measured:
GST-CD40_216-277 = test: AlphaScreen PPI, TRAF6 mutants binding to CD40; parameters: species or system human; TRAF6 binding to CD40 (AlphaScreen), mean: unit not given here; conditions: for effect of TRAF6 mutation on binding to CD40 (in words): AlphaScreen PPI; for TRAF6 binding to CD40 (AlphaScreen), mean / TRAF6 binding to CD40 (AlphaScreen): Figure 2b; for TRAF6 binding to CD40 (AlphaScreen), mean: mean of n = 3
Experimental: (§1) Fig. 2 LMP1 binds to the receptor-interacting surface of TRAF6. a Mutations within the receptor-interacting surface of TRAF6 affect binding to LMP1. The TRAF6 mutants R392A, K469A, F471A, and Y473A were tested LMP1 in AlphaScreen PPI experiments with GST-LMP1_181-386. Data are mean values ± SD of three independent experiments. Statistics: one-way ANOVA. b TRAF6 R392A differentiates between CD40 and LMP1/RANK. AlphaScreen PPI experiments with GST-CD40_216-277. Data are mean values ± SD of three independent experiments. […] AlphaScreen PPI experiments with GST-RANK314-355. Data are mean values ± SD of four independent experiments. Statistics: one-way ANOVA. d TRAF6 mutants that fail to interact with LMP1 in PPI assays are also unable to bind cellular LMP1. HEK293 cells were co-transfected with HA-LMP1 and the indicated Flag-TRAF6 mutants. Flag-TRAF6 was immunoprecipitated (IP) via its Flag-tag and coprecipitated HA-LMP1 was detected on immunoblots by an α-HA antibody. Uncropped blots in Supplementary Fig. 6b. For statistical analysis LMP1 signals were digitalized and quantified (graph). Data are mean values ± SD of three independent experiments. […] TRAF6 recruitment is dependent on amino acids 371 − 386 of LMP1 (small panel). Confocal microscopy images show representative cells of three independent experiments. Quantitative data are mean values ± SD of ten randomly selected cells per transfection of one representative experiment (graph). Scale bars: 10 µm. Statistics: one-way ANOVA. p-values: *p ≤ 0.05, **p ≤ 0.01, ***p ≤ 0.001, ****p ≤ 0.0001. Source data and exact p-values in the Source Data file.
(§2) AlphaScreen experiments were performed in 96- or 384-well plates (Perkin Elmer, OptiPlate). In both assay formats, His-TRAF and GST-LMP1, GST-CD40, or GST-RANK proteins were incubated together in 40 µL of PBS (protein concentrations were calculated to the final reaction volume of 60 µL) supplemented with 0.5% BSA (Sigma, #A7030) and 0.1% Tween-20 (AppliChem, #A4974), for 1 h at room temperature (RT). If not indicated otherwise, standard protein concentrations were 300 nM for His-TRAF proteins and 100 nM for GST-LMP1 proteins. Ni-NTA-acceptor (Perkin Elmer, #6760619 C) and GST-acceptor (Perkin Elmer, # 6765300) beads were added each to a final concentration of 1–4 µg per mL in a final reaction volume of 60 µL and incubated for 1 h at RT in the dark. AlphaScreen PPI signals were measured in a CLARIOstar reader (BMG Labtech GmbH).

GST-RANK314-355 [1] = test: AlphaScreen PPI, TRAF6 mutants binding to RANK; parameters: species or system human; conditions: for effect of TRAF6 mutation on binding to RANK (in words): AlphaScreen PPI; for TRAF6 binding to RANK (AlphaScreen), mean / TRAF6 binding to RANK (AlphaScreen): Figure 2c; for TRAF6 binding to RANK (AlphaScreen), mean: mean of n = 4
Experimental: as §1, §2

GST-LMP1 Q381E = test: AlphaScreen PPI, TRAF6 mutants binding to LMP1 Q381E; parameters: species or system Epstein-Barr virus; conditions: for interaction with LMP1 Q381E (in words): AlphaScreen PPI, four independent experiments; for TRAF6 binding to LMP1 Q-E, AlphaScreen (relative), Supplementary Figure 2 a: mean of wt = 100; for TRAF6 binding to LMP1 Q-E, AlphaScreen (relative), mean: wt = 100, mean of n = 4
Experimental: as §2, with “GmbH). […]” for “GmbH).”
Supplementary Figure 2. LMP1 Q381E interaction with TRAF6 and additional controls to
experiments. Data are mean values ± SD of four independent experiments. Statistics: one -way
ANOVA. p-values: ****p ≤ 0.0001. Source data in the Source Data file. […]

GST-RANK314-355 [2] = test: AlphaScreen PPI, TRAF6 mutants binding to RANK; parameters: species or system human
[3] = relative to mean wt 100, replicate 1

Row | Molecule | effect of TRAF6 mutation on binding to CD40 (in words) (GST-CD40_216-277) | TRAF6 binding to CD40 (AlphaScreen), mean (GST-CD40_216-277) | TRAF6 binding to CD40 (AlphaScreen) (GST-CD40_216-277; [3]) | TRAF6 binding to CD40 (AlphaScreen) (GST-CD40_216-277; replicate 2) | TRAF6 binding to CD40 (AlphaScreen) (GST-CD40_216-277; replicate 3) | effect of TRAF6 mutation on binding to RANK (in words) (GST-RANK314-355 [1]) | TRAF6 binding to RANK (AlphaScreen), mean (GST-RANK314-355 [1]) | TRAF6 binding to RANK (AlphaScreen) (GST-RANK314-355 [1]; replicate 1) | TRAF6 binding to RANK (AlphaScreen) (GST-RANK314-355 [1]; replicate 2) | TRAF6 binding to RANK (AlphaScreen) (GST-RANK314-355 [1]; replicate 3) | TRAF6 binding to RANK (AlphaScreen) (GST-RANK314-355 [1]; replicate 4) | interaction with LMP1 Q381E (in words) (GST-LMP1 Q381E) | TRAF6 binding to LMP1 Q-E, AlphaScreen (relative), Supplementary Figure 2 a (GST-LMP1 Q381E; replicate 1) | TRAF6 binding to LMP1 Q-E, AlphaScreen (relative), Supplementary Figure 2 a (GST-LMP1 Q381E; replicate 2) | TRAF6 binding to LMP1 Q-E, AlphaScreen (relative), Supplementary Figure 2 a (GST-LMP1 Q381E; replicate 3) | TRAF6 binding to LMP1 Q-E, AlphaScreen (relative), Supplementary Figure 2 a (GST-LMP1 Q381E; replicate 4) | TRAF6 binding to LMP1 Q-E, AlphaScreen (relative), mean (GST-LMP1 Q381E) | effect of TRAF6 mutation on binding to RANK (in words) (GST-RANK314-355 [2]; listed as TRAF6 R392A) | effect of TRAF6 mutation on binding to RANK (in words) (GST-RANK314-355 [2]; listed as Y471A)
1 | B1 | no impact on TRAF6 binding to CD40 | 85.62 | 56.3 | 84.0 | 116.7 | do not bind to RANK; also recorded: prevented the interaction of TRAF6 with LMP1 and RANK | 0.1 | 0.1 | 0.1 | 0.1 | 0.1 | fail to interact with LMP1 Q381E; also recorded: unable to override the negative effect of R392A mutation | 8.4 | 4.1 | 6.1 | 4.8 | 5.85 | do not interact | 
2 | B2 | complete loss of TRAF6 binding | 0.5871 | 0.7 | 0.5 | 0.5 |  |  |  |  |  |  |  |  |  |  |  |  |  | 
3 | B3 | complete loss of TRAF6 binding | 0.6069 | 0.8 | 0.43 | 0.6 | do not interact | 0.725 | 0.2 | 0.4 | 0.2 | 2.1 | fail to interact with LMP1 Q381E; also recorded: unable to override the negative effect | 4.8 | 2.2 | 3.4 | 2.2 | 3.15 |  | abolished the interaction of TRAF6 with RANK; also recorded: do not bind to RANK
